{"source": "paper PMC1277809", "test_in_all_cases": "competition EMSA", "key": {"[1]": {"molecular_target": "T1, LexA (DinR) wild type (Bacillus subtilis, UniProt P31080 1-205)", "T1 sequence": "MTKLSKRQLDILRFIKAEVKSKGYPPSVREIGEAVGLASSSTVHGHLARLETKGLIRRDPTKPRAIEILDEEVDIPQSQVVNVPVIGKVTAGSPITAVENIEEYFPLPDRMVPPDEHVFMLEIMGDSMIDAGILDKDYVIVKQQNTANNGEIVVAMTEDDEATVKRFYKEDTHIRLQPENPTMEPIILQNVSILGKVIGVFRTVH"}, "[2]": {"molecular_target": "T1, LexA (DinR) wild type", "remark": "listed apart in the source"}, "[3]": {"molecular_target": "T1, LexA (DinR) wild type", "remark": "listed apart in the source"}, "[4]": {"molecular_target": "T1, LexA (DinR) wild type", "remark": "listed apart in the source"}, "[5]": {"molecular_target": "T1, LexA (DinR) wild type", "remark": "listed apart in the source"}, "[6]": {"molecular_target": "T1, LexA (DinR) wild type", "remark": "listed apart in the source"}, "[7]": {"molecular_target": "T1, LexA (DinR) wild type", "remark": "listed apart in the source"}, "[8]": {"molecular_target": "T1, LexA (DinR) wild type", "remark": "listed apart in the source"}, "[9]": {"molecular_target": "T1, LexA (DinR) wild type", "remark": "listed apart in the source"}, "[10]": {"molecular_target": "T1, LexA (DinR) wild type", "remark": "listed apart in the source"}, "[11]": {"molecular_target": "T1, LexA (DinR) wild type", "remark": "listed apart in the source"}, "[12]": {"molecular_target": "T1, LexA (DinR) wild type", "remark": "listed apart in the source"}, "[13]": {"molecular_target": "T1, LexA (DinR) wild type", "remark": "listed apart in the source"}, "[14]": {"molecular_target": "T1, LexA (DinR) wild type", "remark": "listed apart in the source"}, "[15]": {"molecular_target": "T1, LexA (DinR) wild type", "remark": "listed apart in the source"}}, "note": "Where two headings read alike, the source gives them in different places.", "data": [{"binder": "recA op T7A (dsDNA) DNA 1: GGGGGGCGAATAAGCGTTCGCCCCCC DNA 2: GGGGGGCGAACGCTTATTCGCCCCCC", "values": [{"measurement": "Ki", "setting": "[1]", "value": 17.1, "unit": "nM"}]}, {"binder": "recA op T5C,A6C (dsDNA) DNA 1: GGGGGGCGAACCTGCGTTCGCCCCCC DNA 2: GGGGGGCGAACGCAGGTTCGCCCCCC", "values": [{"measurement": "Ki", "setting": "[2]", "value": 0.56, "unit": "nM"}]}, {"binder": "recA op C1G (dsDNA) DNA 1: GGGGGGGGAATATGCGTTCGCCCCCC DNA 2: GGGGGGCGAACGCATATTCCCCCCCC", "values": [{"measurement": "Ki", "setting": "[3]", "value": 53, "unit": "nM"}]}, {"binder": "recA op C1A,T5C (dsDNA) DNA 1: GGGGGGAGAACATGCGTTCGCCCCCC DNA 2: GGGGGGCGAACGCATGTTCTCCCCCC", "values": [{"measurement": "Ki", "setting": "[4]", "value": 0.42, "unit": "nM"}]}, {"binder": "recA op T7C (dsDNA) DNA 1: GGGGGGCGAATACGCGTTCGCCCCCC DNA 2: GGGGGGCGAACGCGTATTCGCCCCCC", "values": [{"measurement": "Ki", "setting": "[5]", "value": 7.8, "unit": "nM"}]}, {"binder": "recA op T5C,G8A,C9T (preferred) (dsDNA) DNA 1: GGGGGGCGAACATATGTTCGCCCCCC DNA 2: GGGGGGCGAACATATGTTCGCCCCCC", "values": [{"measurement": "Ki", "setting": "[6]", "value": 0.17, "unit": "nM"}]}, {"binder": "recA op T5C,A6T (dsDNA) DNA 1: GGGGGGCGAACTTGCGTTCGCCCCCC DNA 2: GGGGGGCGAACGCAAGTTCGCCCCCC", "values": [{"measurement": "Ki", "setting": "[7]", "value": 0.49, "unit": "nM"}]}, {"binder": "recA op G2A,T5C (dsDNA) DNA 1: GGGGGGCAAACATGCGTTCGCCCCCC DNA 2: GGGGGGCGAACGCATGTTTGCCCCCC", "values": [{"measurement": "Ki", "setting": "[8]", "value": 5.2, "unit": "nM"}]}, {"binder": "recA op A6G (dsDNA) DNA 1: GGGGGGCGAATGTGCGTTCGCCCCCC DNA 2: GGGGGGCGAACGCACATTCGCCCCCC", "values": [{"measurement": "Ki", "setting": "[9]", "value": 6.4, "unit": "nM"}]}, {"binder": "recA op C1A (dsDNA) DNA 1: GGGGGGAGAATATGCGTTCGCCCCCC DNA 2: GGGGGGCGAACGCATATTCTCCCCCC", "values": [{"measurement": "Ki", "setting": "[10]", "value": 11.4, "unit": "nM"}]}, {"binder": "recA op A6T (dsDNA) DNA 1: GGGGGGCGAATTTGCGTTCGCCCCCC DNA 2: GGGGGGCGAACGCAAATTCGCCCCCC", "values": [{"measurement": "Ki", "setting": "[11]", "value": 11.5, "unit": "nM"}]}, {"binder": "recA op T5C,T7A (dsDNA) DNA 1: GGGGGGCGAACAAGCGTTCGCCCCCC DNA 2: GGGGGGCGAACGCTTGTTCGCCCCCC", "values": [{"measurement": "Ki", "setting": "[12]", "value": 0.62, "unit": "nM"}]}, {"binder": "recA op C1G,T5C (dsDNA) DNA 1: GGGGGGGGAACATGCGTTCGCCCCCC DNA 2: GGGGGGCGAACGCATGTTCCCCCCCC", "values": [{"measurement": "Ki", "setting": "[13]", "value": 1, "unit": "nM"}]}, {"binder": "recA op A6C (dsDNA) DNA 1: GGGGGGCGAATCTGCGTTCGCCCCCC DNA 2: GGGGGGCGAACGCAGATTCGCCCCCC", "values": [{"measurement": "Ki", "setting": "[14]", "value": 20, "unit": "nM"}]}, {"binder": "recA op T5C (dsDNA) DNA 1: GGGGGGCGAACATGCGTTCGCCCCCC DNA 2: GGGGGGCGAACGCATGTTCGCCCCCC", "values": [{"measurement": "Ki", "setting": "[15]", "value": 0.22, "unit": "nM"}]}]}
